Square brackets hold non-standard residues; d marks the D form. Ends that are not written are not given here. Aib = CC(C)(N)C(=O)O

The target of experiment [1] is human glucagon-like peptide-1 receptor (human, UniProt P43220). The experiment in a line: cell-based or functional assay.
In experiment [2] the target is T1, human glucose-dependent insulinotropic peptide receptor (human, UniProt P48546).
T1 sequence: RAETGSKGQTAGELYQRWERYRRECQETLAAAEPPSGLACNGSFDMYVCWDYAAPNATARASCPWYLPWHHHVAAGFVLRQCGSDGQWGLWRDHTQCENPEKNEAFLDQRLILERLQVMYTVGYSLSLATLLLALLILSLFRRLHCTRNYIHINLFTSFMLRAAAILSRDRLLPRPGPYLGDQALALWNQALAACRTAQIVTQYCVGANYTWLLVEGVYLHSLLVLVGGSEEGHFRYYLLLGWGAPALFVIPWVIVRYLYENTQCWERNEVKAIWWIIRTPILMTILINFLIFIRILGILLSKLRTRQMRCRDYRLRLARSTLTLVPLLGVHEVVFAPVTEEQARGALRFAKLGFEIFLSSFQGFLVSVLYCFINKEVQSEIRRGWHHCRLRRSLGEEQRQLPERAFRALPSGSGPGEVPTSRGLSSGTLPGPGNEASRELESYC
The experiment in a line: cell-based or functional assay.

B1: Compound No. 71 (peptide)
peptide: Y[Aib]EGTFTSDYSIYLEEEAAKEFVNWLLAGGPSSGAPPPS-NH2
modifications: N-terminus assumed
SMILES: CC[C@H](C)[C@H](NC(=O)[C@H](CO)NC(=O)[C@H](Cc1ccc(O)cc1)NC(=O)[C@H](CC(=O)O)NC(=O)[C@H](CO)NC(=O)[C@@H](NC(=O)[C@H](Cc1ccccc1)NC(=O)[C@@H](NC(=O)CNC(=O)[C@H](CCC(=O)O)NC(=O)C(C)(C)NC(=O)[C@@H](N)Cc1ccc(O)cc1)[C@@H](C)O)[C@@H](C)O)C(=O)N[C@@H](Cc1ccc(O)cc1)C(=O)N[C@@H](CC(C)C)C(=O)N[C@@H](CCC(=O)O)C(=O)N[C@@H](CCC(=O)O)C(=O)N[C@@H](CCC(=O)O)C(=O)N[C@@H](C)C(=O)N[C@@H](C)C(=O)N[C@@H](CCCCN)C(=O)N[C@@H](CCC(=O)O)C(=O)N[C@@H](Cc1ccccc1)C(=O)N[C@H](C(=O)N[C@@H](CC(N)=O)C(=O)N[C@@H](Cc1c[nH]c2ccccc12)C(=O)N[C@@H](CC(C)C)C(=O)N[C@@H](CC(C)C)C(=O)N[C@@H](C)C(=O)NCC(=O)NCC(=O)N1CCC[C@H]1C(=O)N[C@@H](CO)C(=O)N[C@@H](CO)C(=O)NCC(=O)N[C@@H](C)C(=O)N1CCC[C@H]1C(=O)N1CCC[C@H]1C(=O)N1CCC[C@H]1C(=O)N[C@@H](CO)C(N)=O)C(C)C
B1: in experiment [1], the “Activity for human GLP-1R (EC50 nM), cAMP HTRF” value (from here on “Activity for human GLP-1R”) stood at 0.017 nM. Moreover, in experiment [2], the “Activity for human GIPR (EC50 nM), cAMP HTRF” value (from here on “Activity for human GIPR”) was 0.042 nM.

B2: Compound No. 66 (peptide)
peptide: Y[Aib]EGTFTSDYSIYLEKEAAKEFVAWLLAGGPSSGAPPPS-NH2
modifications: N-terminus assumed
SMILES: CC[C@H](C)[C@H](NC(=O)[C@H](CO)NC(=O)[C@H](Cc1ccc(O)cc1)NC(=O)[C@H](CC(=O)O)NC(=O)[C@H](CO)NC(=O)[C@@H](NC(=O)[C@H](Cc1ccccc1)NC(=O)[C@@H](NC(=O)CNC(=O)[C@H](CCC(=O)O)NC(=O)C(C)(C)NC(=O)[C@@H](N)Cc1ccc(O)cc1)[C@@H](C)O)[C@@H](C)O)C(=O)N[C@@H](Cc1ccc(O)cc1)C(=O)N[C@@H](CC(C)C)C(=O)N[C@@H](CCC(=O)O)C(=O)N[C@@H](CCCCN)C(=O)N[C@@H](CCC(=O)O)C(=O)N[C@@H](C)C(=O)N[C@@H](C)C(=O)N[C@@H](CCCCN)C(=O)N[C@@H](CCC(=O)O)C(=O)N[C@@H](Cc1ccccc1)C(=O)N[C@H](C(=O)N[C@@H](C)C(=O)N[C@@H](Cc1c[nH]c2ccccc12)C(=O)N[C@@H](CC(C)C)C(=O)N[C@@H](CC(C)C)C(=O)N[C@@H](C)C(=O)NCC(=O)NCC(=O)N1CCC[C@H]1C(=O)N[C@@H](CO)C(=O)N[C@@H](CO)C(=O)NCC(=O)N[C@@H](C)C(=O)N1CCC[C@H]1C(=O)N1CCC[C@H]1C(=O)N1CCC[C@H]1C(=O)N[C@@H](CO)C(N)=O)C(C)C
Regarding B2, the “Activity for human GLP-1R” value in experiment [1] was found to be 0.026 nM. In experiment [2], the “Activity for human GIPR” value came to 0.054 nM.

B3: Compound No. 72 (peptide)
peptide: Y[Aib]EGTFTSDYSIYLEEIAAKEFVNWLLAGGPSSGAPPPS-NH2
modifications: N-terminus assumed
SMILES: CC[C@H](C)[C@H](NC(=O)[C@H](CCC(=O)O)NC(=O)[C@H](CCC(=O)O)NC(=O)[C@H](CC(C)C)NC(=O)[C@H](Cc1ccc(O)cc1)NC(=O)[C@@H](NC(=O)[C@H](CO)NC(=O)[C@H](Cc1ccc(O)cc1)NC(=O)[C@H](CC(=O)O)NC(=O)[C@H](CO)NC(=O)[C@@H](NC(=O)[C@H](Cc1ccccc1)NC(=O)[C@@H](NC(=O)CNC(=O)[C@H](CCC(=O)O)NC(=O)C(C)(C)NC(=O)[C@@H](N)Cc1ccc(O)cc1)[C@@H](C)O)[C@@H](C)O)[C@@H](C)CC)C(=O)N[C@@H](C)C(=O)N[C@@H](C)C(=O)N[C@@H](CCCCN)C(=O)N[C@@H](CCC(=O)O)C(=O)N[C@@H](Cc1ccccc1)C(=O)N[C@H](C(=O)N[C@@H](CC(N)=O)C(=O)N[C@@H](Cc1c[nH]c2ccccc12)C(=O)N[C@@H](CC(C)C)C(=O)N[C@@H](CC(C)C)C(=O)N[C@@H](C)C(=O)NCC(=O)NCC(=O)N1CCC[C@H]1C(=O)N[C@@H](CO)C(=O)N[C@@H](CO)C(=O)NCC(=O)N[C@@H](C)C(=O)N1CCC[C@H]1C(=O)N1CCC[C@H]1C(=O)N1CCC[C@H]1C(=O)N[C@@H](CO)C(N)=O)C(C)C
Consider B3, for which, in experiment [1], the “Activity for human GLP-1R” value was determined as 0.017 nM. Moreover, the “Activity for human GIPR” value in experiment [2] came to 0.03 nM.

B4: Compound No. 69 (peptide)
peptide: Y[Aib]EGTFTSDVSIYLDKIAAQEFVNWLLAGGPSSGAPPPS-NH2
modifications: N-terminus assumed
SMILES: CC[C@H](C)[C@H](NC(=O)[C@H](CCCCN)NC(=O)[C@H](CC(=O)O)NC(=O)[C@H](CC(C)C)NC(=O)[C@H](Cc1ccc(O)cc1)NC(=O)[C@@H](NC(=O)[C@H](CO)NC(=O)[C@@H](NC(=O)[C@H](CC(=O)O)NC(=O)[C@H](CO)NC(=O)[C@@H](NC(=O)[C@H](Cc1ccccc1)NC(=O)[C@@H](NC(=O)CNC(=O)[C@H](CCC(=O)O)NC(=O)C(C)(C)NC(=O)[C@@H](N)Cc1ccc(O)cc1)[C@@H](C)O)[C@@H](C)O)C(C)C)[C@@H](C)CC)C(=O)N[C@@H](C)C(=O)N[C@@H](C)C(=O)N[C@@H](CCC(N)=O)C(=O)N[C@@H](CCC(=O)O)C(=O)N[C@@H](Cc1ccccc1)C(=O)N[C@H](C(=O)N[C@@H](CC(N)=O)C(=O)N[C@@H](Cc1c[nH]c2ccccc12)C(=O)N[C@@H](CC(C)C)C(=O)N[C@@H](CC(C)C)C(=O)N[C@@H](C)C(=O)NCC(=O)NCC(=O)N1CCC[C@H]1C(=O)N[C@@H](CO)C(=O)N[C@@H](CO)C(=O)NCC(=O)N[C@@H](C)C(=O)N1CCC[C@H]1C(=O)N1CCC[C@H]1C(=O)N1CCC[C@H]1C(=O)N[C@@H](CO)C(N)=O)C(C)C
For B4, the “Activity for human GLP-1R” value in experiment [1] was 0.052 nM. Also, the “Activity for human GIPR” value in experiment [2] came to 0.12 nM.

B5: Compound No. 70 (peptide)
peptide: Y[Aib]EGTFTSDYSIYLEEIAAQEFVNWLLAGGPSSGAPPPS-NH2
modifications: N-terminus assumed
SMILES: CC[C@H](C)[C@H](NC(=O)[C@H](CCC(=O)O)NC(=O)[C@H](CCC(=O)O)NC(=O)[C@H](CC(C)C)NC(=O)[C@H](Cc1ccc(O)cc1)NC(=O)[C@@H](NC(=O)[C@H](CO)NC(=O)[C@H](Cc1ccc(O)cc1)NC(=O)[C@H](CC(=O)O)NC(=O)[C@H](CO)NC(=O)[C@@H](NC(=O)[C@H](Cc1ccccc1)NC(=O)[C@@H](NC(=O)CNC(=O)[C@H](CCC(=O)O)NC(=O)C(C)(C)NC(=O)[C@@H](N)Cc1ccc(O)cc1)[C@@H](C)O)[C@@H](C)O)[C@@H](C)CC)C(=O)N[C@@H](C)C(=O)N[C@@H](C)C(=O)N[C@@H](CCC(N)=O)C(=O)N[C@@H](CCC(=O)O)C(=O)N[C@@H](Cc1ccccc1)C(=O)N[C@H](C(=O)N[C@@H](CC(N)=O)C(=O)N[C@@H](Cc1c[nH]c2ccccc12)C(=O)N[C@@H](CC(C)C)C(=O)N[C@@H](CC(C)C)C(=O)N[C@@H](C)C(=O)NCC(=O)NCC(=O)N1CCC[C@H]1C(=O)N[C@@H](CO)C(=O)N[C@@H](CO)C(=O)NCC(=O)N[C@@H](C)C(=O)N1CCC[C@H]1C(=O)N1CCC[C@H]1C(=O)N1CCC[C@H]1C(=O)N[C@@H](CO)C(N)=O)C(C)C
In the case of B5, the “Activity for human GLP-1R” value in experiment [1] came to 0.017 nM. The “Activity for human GIPR” value in experiment [2] worked out at 0.017 nM.

B6: Compound No. 2 (peptide)
peptide: Y[Aib]EGTFTSDVSSYLEEEAAKEFIAWLVRGGPSSGAPPPSK-NH2
modifications: N-terminus assumed
SMILES: CC[C@H](C)[C@H](NC(=O)[C@H](Cc1ccccc1)NC(=O)[C@H](CCC(=O)O)NC(=O)[C@H](CCCCN)NC(=O)[C@H](C)NC(=O)[C@H](C)NC(=O)[C@H](CCC(=O)O)NC(=O)[C@H](CCC(=O)O)NC(=O)[C@H](CCC(=O)O)NC(=O)[C@H](CC(C)C)NC(=O)[C@H](Cc1ccc(O)cc1)NC(=O)[C@H](CO)NC(=O)[C@H](CO)NC(=O)[C@@H](NC(=O)[C@H](CC(=O)O)NC(=O)[C@H](CO)NC(=O)[C@@H](NC(=O)[C@H](Cc1ccccc1)NC(=O)[C@@H](NC(=O)CNC(=O)[C@H](CCC(=O)O)NC(=O)C(C)(C)NC(=O)[C@@H](N)Cc1ccc(O)cc1)[C@@H](C)O)[C@@H](C)O)C(C)C)C(=O)N[C@@H](C)C(=O)N[C@@H](Cc1c[nH]c2ccccc12)C(=O)N[C@@H](CC(C)C)C(=O)N[C@H](C(=O)N[C@@H](CCCNC(=N)N)C(=O)NCC(=O)NCC(=O)N1CCC[C@H]1C(=O)N[C@@H](CO)C(=O)N[C@@H](CO)C(=O)NCC(=O)N[C@@H](C)C(=O)N1CCC[C@H]1C(=O)N1CCC[C@H]1C(=O)N1CCC[C@H]1C(=O)N[C@@H](CO)C(=O)N[C@@H](CCCCN)C(N)=O)C(C)C
Consider B6, for which the “Activity for human GLP-1R” value in experiment [1] is 0.017 nM. Besides, in experiment [2], the “Activity for human GIPR” value was 3.5 nM.

The record behind these values is US20220168396A1, “MULTI-RECEPTOR AGONIST AND MEDICAL USE THEREOF” (published 2022).
